From patent US20200299400A1

Target: human GITR on activated CD4 T cells (human) (UniProt Q9Y5U5)
Assay: FACS binding to activated human CD4 T cells

Sequence of human GITR on activated CD4 T cells (human) (Q9Y5U5 26-241): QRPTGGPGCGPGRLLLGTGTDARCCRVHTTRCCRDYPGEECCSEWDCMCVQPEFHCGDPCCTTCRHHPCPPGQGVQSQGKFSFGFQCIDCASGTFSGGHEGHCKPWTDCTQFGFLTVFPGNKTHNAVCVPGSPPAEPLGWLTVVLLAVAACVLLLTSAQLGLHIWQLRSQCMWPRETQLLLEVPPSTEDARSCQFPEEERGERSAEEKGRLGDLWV

| EC50 | Substance |
| --- | --- |
| 6.72 nM | unrelated hIgG2 |
| 132 nM | unrelated hIgG1 |
